Reference: US20100233154A1, “TARGETED BINDING AGENTS DIRECTED TO HEPARANASE AND USES THEREOF 463” (MedImmune Limited, priority 2008, published 2010)

Key:
[1] = target: T1, recombinant human heparanase (Homo sapiens, UniProt Q9Y251); assay: ELISA binding to directly coated recombinant human heparanase
T1 construct: Heparanase 8 and 50 kDa sub-units were cloned into pacGP67 as Sma 1-EcoR1 fragments; made in house; host or cells: Hi5 insect cells, baculovirus (pFastBac Dual)
T1 sequence (Q9Y251 158-543 limits assumed): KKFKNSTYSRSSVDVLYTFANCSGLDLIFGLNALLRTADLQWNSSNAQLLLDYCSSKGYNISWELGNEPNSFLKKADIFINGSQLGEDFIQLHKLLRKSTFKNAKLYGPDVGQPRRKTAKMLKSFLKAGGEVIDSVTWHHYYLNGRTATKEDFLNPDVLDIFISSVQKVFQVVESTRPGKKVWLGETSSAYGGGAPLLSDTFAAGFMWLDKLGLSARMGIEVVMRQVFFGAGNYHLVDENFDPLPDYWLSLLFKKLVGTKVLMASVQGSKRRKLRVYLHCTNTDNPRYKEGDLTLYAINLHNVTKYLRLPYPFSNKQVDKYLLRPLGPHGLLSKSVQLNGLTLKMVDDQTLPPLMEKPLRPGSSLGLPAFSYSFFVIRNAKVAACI
T1 sequence (Q9Y251 36-109 limits assumed): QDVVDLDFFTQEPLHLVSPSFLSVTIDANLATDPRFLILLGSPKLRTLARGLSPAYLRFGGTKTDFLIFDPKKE
Procedure: (§1) Titres of antibodies from Campaigns 1 and 2 were determined in an ELISA. Costar 3368 medium binding plates were coated directly with recombinant human heparanase or plates were coated with Rabbit anti-heparanase antibody (Raybiotech, Cat. IP-14-155) to capture recombinant heparanase. Directly coated heparanase was detected in three separate plates by mouse (InSight Cat. INS-26-1-0000), goat (Santa Cruz, Cat. sc26136) or rabbit (Raybiotech, Cat. IP-14-155) anti-heparanase antibodies, and quantified using appropriate secondary antibodies. Antibody captured heparanase was detected using mouse anti-heparanase (Insight Cat. INS-26-1-0000). At the end of the immunisation program, fusions were performed using mouse myeloma cells and lymphocytes isolated from the spleens and lymph nodes of the immunised mice by means of electroporation, as described in Example 2.
(§2) Initial screening to detect antibodies binding to human heparanase in both direct coating and antibody capture ELISAs as described above identified 800 hybridomas for further testing; 535 IgG2 from Campaign 1 and 2 and 265 IgG4 from Campaign 2. Enzyme inhibition assays and cross species binding to cynomolgus and murine heparanase, in an antibody capture ELISA, identifed 12 antibodies that were taken forward for sub-cloning to provide purified antibodies for further analysis. Subsequently, confirmation of activity against human heparanase (FIGS. 3 and 4) and inhibition of recombinant cynomolgus and murine heparanase activity in the HS-cryptate degradation assay (FIG. 5a-c), together with sequence analysis, identified 8 antibodies that are described in the table below.

[2] = target: T2, recombinant heparanase captured with rabbit anti-heparanase antibody (Homo sapiens, UniProt Q9Y251); assay: ELISA binding to antibody-captured heparanase; conditions: antibody capture
T2 construct: Heparanase 8 and 50 kDa sub-units were cloned into pacGP67 as Sma 1-EcoR1 fragments; made in house; host or cells: Hi5 insect cells, baculovirus (pFastBac Dual)
T2 sequence (Q9Y251 158-543 limits assumed): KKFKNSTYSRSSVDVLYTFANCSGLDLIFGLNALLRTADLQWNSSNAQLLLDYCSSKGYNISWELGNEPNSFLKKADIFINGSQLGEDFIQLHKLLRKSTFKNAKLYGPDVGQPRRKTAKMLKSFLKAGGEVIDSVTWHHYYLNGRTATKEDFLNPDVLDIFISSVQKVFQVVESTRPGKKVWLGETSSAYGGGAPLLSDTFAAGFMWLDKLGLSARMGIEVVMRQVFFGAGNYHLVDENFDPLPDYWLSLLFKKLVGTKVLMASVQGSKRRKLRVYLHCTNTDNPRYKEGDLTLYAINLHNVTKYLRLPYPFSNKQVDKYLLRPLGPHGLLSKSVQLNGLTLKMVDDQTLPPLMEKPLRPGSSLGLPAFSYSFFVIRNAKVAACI
T2 sequence (Q9Y251 36-109 limits assumed): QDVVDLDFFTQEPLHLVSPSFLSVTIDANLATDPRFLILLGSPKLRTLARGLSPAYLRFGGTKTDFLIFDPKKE
Procedure: as §1, §2

human heparanase = target: T3, human heparanase (Homo sapiens, UniProt Q9Y251); assay: Cross species capture ELISA, human heparanase; format: binding
T3 sequence (Q9Y251 36-543): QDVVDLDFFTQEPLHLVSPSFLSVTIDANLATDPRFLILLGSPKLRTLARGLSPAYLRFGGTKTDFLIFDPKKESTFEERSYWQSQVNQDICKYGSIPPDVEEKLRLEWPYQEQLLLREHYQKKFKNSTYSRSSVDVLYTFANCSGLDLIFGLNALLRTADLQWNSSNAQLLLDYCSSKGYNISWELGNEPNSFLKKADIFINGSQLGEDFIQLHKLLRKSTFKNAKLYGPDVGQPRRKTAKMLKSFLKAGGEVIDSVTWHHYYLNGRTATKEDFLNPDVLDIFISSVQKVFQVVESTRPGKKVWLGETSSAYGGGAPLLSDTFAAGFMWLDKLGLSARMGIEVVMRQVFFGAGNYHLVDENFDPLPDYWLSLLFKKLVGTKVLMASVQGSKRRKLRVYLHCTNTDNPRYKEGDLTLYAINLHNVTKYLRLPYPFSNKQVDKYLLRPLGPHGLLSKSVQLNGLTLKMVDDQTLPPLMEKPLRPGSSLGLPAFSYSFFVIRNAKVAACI
Procedure: (§3) Initially, cross species binding to human, murine and cynomolgus heparanase was determined in an ELISA assay in which heparanase was captured onto plates using a rabbit anti-heparanase antibody (Raybiotech, Cat. IP-14-155). Exhaustive supernatants were added to the plates at a final dilution of 1:5 and bound antibody detected with a rabbit anti-human IgG Fc.

cynomolgus heparanase = assay: Cross species capture ELISA, cynomolgus heparanase; format: binding; conditions: min 0.06, max 1.5 OD units
Procedure: as §3

murine heparanase = target: T4, murine heparanase (Mus musculus, UniProt Q6YGZ1); assay: Cross species capture ELISA, murine heparanase; format: binding; conditions: min 0.06, max 0.9 OD units
T4 construct: made in house; host or cells: Hek293 cells (conditioned medium), inferred for the ELISA
T4 sequence (Q6YGZ1 28-535): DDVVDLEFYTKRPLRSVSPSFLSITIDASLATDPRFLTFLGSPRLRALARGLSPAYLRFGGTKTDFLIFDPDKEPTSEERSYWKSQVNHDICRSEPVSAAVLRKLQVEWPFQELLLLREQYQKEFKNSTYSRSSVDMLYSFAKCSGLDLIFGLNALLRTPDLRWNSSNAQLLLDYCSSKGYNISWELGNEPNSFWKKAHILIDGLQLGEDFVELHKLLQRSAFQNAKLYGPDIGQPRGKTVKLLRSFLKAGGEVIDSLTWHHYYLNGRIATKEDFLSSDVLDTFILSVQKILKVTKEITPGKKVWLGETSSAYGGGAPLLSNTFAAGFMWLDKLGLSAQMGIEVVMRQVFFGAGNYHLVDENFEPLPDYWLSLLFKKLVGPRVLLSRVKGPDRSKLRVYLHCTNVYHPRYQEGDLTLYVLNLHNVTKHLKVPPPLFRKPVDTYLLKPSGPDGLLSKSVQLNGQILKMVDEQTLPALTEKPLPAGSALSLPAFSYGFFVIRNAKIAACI
Procedure: as §3

Row | Binding to direct coated heparanase [1] | Binding to captured heparanase [2] | Binding to heparanase Human (human heparanase) | Binding to heparanase Cyno (cynomolgus heparanase) | Binding to heparanase Mouse (murine heparanase) | Molecule
1 | 3.63 OD units | 3.82 OD units | 1.84 OD units | 1.64 OD units | 0.61 OD units | 16G1.1: human anti-heparanase monoclonal antibody, G4κ; VH SEQ ID NO 14, VL SEQ ID NO 16 (antibody, listed as Homo Sapiens, V domains shown) VH: QVQLVESGGGVVQPGRSLRLSCAASGFTFSSYGMHWVRQAPGKGLEWVAVIWYDGSNKYYADSVKGRFTISRDNSKNTLNLQMNSLRAEDTAVYYCGRDPGTYHYYYHGMDVWGQGTTVTVSS VL: YIVMTQSPLSLPVTPGEPASISCRSSQSLLHSNGYNFLDWYLQKPGQSPQLLIYLGSNRASGVPDRFSGSGSGTDFTLKINRVEAEDVGVYYCMQALQTPITFGQGTRLEIK
2 | 3.78 OD units | 6.0 OD units | 0.68 OD units | 1.06 OD units | 0.58 OD units | 7B9.1: human anti-heparanase monoclonal antibody, G4λ; VH SEQ ID NO 22, VL SEQ ID NO 24 (antibody, listed as Homo Sapiens, V domains shown) VH: QVQLVESGGGVVQPGRSLRLSCAASGFTFSSYGMHWVRQAPGKGLEWVAVIWYDGSNKYYADSVKGRFTISRDNSKNTLYLQMNSLRAEDTAVYYCAREGAPYSSSDAFDIWGQGTMVTVSS VL: QSVLTQPPSVSGAPGQRVTISCTGSSSNIGANYDVHWYQQLPGTAPKLLIYGDNNRPSGVPDRFSGSKSGTSASLAITGLQAEDEADYYCQSYDSSLSGSVFGGGTKLTVL
